Assay [1] has as its target Rous sarcoma virus integrase (1-286) R244E (Rous sarcoma virus (Prague A)). In words: SEC. (SEC sorts molecules by how far they enter the pores of the column.)
Assay [2] deals with Rous sarcoma virus integrase (1-286) R244A (Rous sarcoma virus (Prague A)). In words: SEC.
In assay [3] the target is Rous sarcoma virus integrase (1-286) Y246A (Rous sarcoma virus (Prague A)). Put plainly: SEC.
Assay [4] deals with Rous sarcoma virus integrase, wt IN (1-278) (Rous sarcoma virus (Prague A)). Put plainly: cryo-EM structure.
Assay [5] has as its target Rous sarcoma virus integrase, wt full-length IN (1-286) (Rous sarcoma virus (Prague A)). In words: SEC.

One may read the stoichiometry N as a count of units in the complex or per binding partner.

As to “Rous sarcoma virus integrase (1-286) R244E (enzyme)”, the stoichiometry N in assay [1] amounted to 2.

In the case of “Rous sarcoma virus integrase (1-286) R244A (enzyme)”, the stoichiometry N in assay [2] worked out at 2.

“Rous sarcoma virus integrase (1-286) Y246A (enzyme)”: the stoichiometry N in assay [3] turned out to be 2.

As for “Rous sarcoma virus integrase, wt IN (1-278) (enzyme)”, the stoichiometry N in assay [4] came to 8.

In assay [5], “Rous sarcoma virus integrase, wt full-length IN (1-286) (enzyme)” returned a stoichiometry N of 2.

The record behind these values is doi:10.1101/2023.03.02.528060.
